Data set [1] has as its target Luciferase (in vitro translated control) (UniProt P08659 P08659:1-550). In words: EMSA; negative control lysate. To be noted: tags: Luciferase T7 control DNA (Promega); label: 32P. As for the experimental part:
(§1) Gamma-satellite monomers from human chromosome X and Y were PCR amplified from genomic DNA, cloned into TA vector and sequenced before their analysis by electrophoretic mobility gel-shift assay (EMSA). Binding reactions were carried out in buffer containing standard PBS with 5 μM MgCl₂, 0.1 μM ZnSO4, 1 μM DTT, 0.1% NP40, and 10% glycerol in the presence of poly(deoxyinosinic-deoxy-CMP) and salmon sperm DNA. Reaction mixtures of 20 μL final volume were incubated for 30 minutes at room temperature and then analyzed on 5% nondenaturing gel using polyacrylamide gel electrophoresis (PAGE) in 0.5×TBE buffer. For EMSA with in vitro methylated DNA probes, treatment with the SssI-methylase was done as previously described for CTCF-binding fragments DMD4 and DMD7 of the H19 ICR (Kanduri et al., Curr. Biol., 10:853-856, 2000). The extent of methylation was verified by digestion overnight with Sau96I restriction endonuclease. Methylation interference analysis was carried out as described previously (Filippova et al., 1996; ibid).
(§2) Electrophoretic mobility shift assays (EMSA) were performed. A set of overlapping fragments corresponding to an 1′-mer of the human gamma 8, were radiolabeled and incubated with the in vitro translated 11 ZF DNA binding domain of the CTCF protein. […] None of 11 alpha-satellite monomers analyzed bound the CTCF protein in vitro.

In data set [2] the target is T1, CTCF 11 ZF DNA binding domain (UniProt P49711 P49711:266-577).
T1 sequence: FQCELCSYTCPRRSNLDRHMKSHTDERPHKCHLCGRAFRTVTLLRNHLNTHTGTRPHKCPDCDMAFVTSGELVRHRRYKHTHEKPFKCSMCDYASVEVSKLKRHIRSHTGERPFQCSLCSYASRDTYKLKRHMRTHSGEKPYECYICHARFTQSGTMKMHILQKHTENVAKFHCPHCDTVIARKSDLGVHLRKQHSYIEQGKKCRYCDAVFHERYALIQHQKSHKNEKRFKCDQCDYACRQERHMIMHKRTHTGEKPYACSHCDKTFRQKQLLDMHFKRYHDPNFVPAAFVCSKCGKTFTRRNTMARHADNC
In words: EMSA; among strongest binding; PBS, Mg, Zn, poly(dI-dC), room temperature; ~250 bp probe containing the monomer. The conditions noted are these: tags: pET16b-11ZF construct, TnT reticulocyte lysate (Promega); label: 32P. As for the experimental part:
as §1, §2

Data set [3] deals with T1, CTCF 11 ZF DNA binding domain. In words: EMSA; CpG methylation does not affect binding. To be noted: tags: pET16b-11ZF construct, TnT reticulocyte lysate (Promega); label: 32P. On the procedure:
as §1
To confirm in vitro mapping results, four guanine residues within the predicted core sequence were selectively mutated, as indicated in FIG. 12. […] To determine if CTCF binding is methylation-dependent, gamma-satellite 8 PCR fragments were methylated with a SssI methyltransferase. […]

For data set [4] the target is unchanged. In words: EMSA; among strongest binding. The conditions noted are these: tags: pET16b-11ZF construct, TnT reticulocyte lysate (Promega); label: 32P. On the procedure: as §1
Electrophoretic mobility shift assays (EMSA) were performed. A set of overlapping fragments corresponding to an 1′-mer of the human gamma 8, were radiolabeled and incubated with the in vitro translated 11 ZF DNA binding domain of the CTCF protein. Recombinant luciferase protein prepared by the same in vitro translation reaction was used as a negative control. […] The presence of CTCF-binding sites was also checked in the human alpha-satellite DNA array lacking anti-silencing (insulating) activity. None of 11 alpha-satellite monomers analyzed bound the CTCF protein in vitro.

For data set [5] the target is unchanged. In words: footprint; methylation interference on fragment 11: seven contact guanines (3 sense, 4 antisense); 55 bp core of 100 bp fragment printed. To be noted: tags: pET16b-11ZF construct, TnT reticulocyte lysate (Promega). As for the experimental part:
as §1, with “Binding” for “Gamma-satellite monomers from human chromosome X and Y were PCR amplified from genomic DNA, cloned into TA vector and sequenced before their analysis by electrophoretic mobility gel-shift assay (EMSA). Binding”
To determine the contact guanine residues recognized by CTCF in gamma-satellite DNA, methylation interference assays (a method that identifies guanine residues in the CTCF binding site that make contact with CTCF zinc fingers) were conducted using a ³²P-labeled fragment of the gamma-satellite monomer (fragment #11). A strong interference of guanine methylation with CTCF-DNA binding was found in three and four guanine residues on sense and anti-sense strands, respectively (FIG. 5B). […]

The target is the same in data set [6]. In words: EMSA; mutation knocked down binding. The conditions noted are these: tags: pET16b-11ZF construct, TnT reticulocyte lysate (Promega). On the procedure:
as §1
To confirm in vitro mapping results, four guanine residues within the predicted core sequence were selectively mutated, as indicated in FIG. 12. […] To determine if CTCF binding is methylation-dependent, gamma-satellite 8 PCR fragments were methylated with a SssI methyltransferase. […] It is worth noting that in most previously reported cases, methylation prevents CTCF binding (Ohlsson et al., Trends Genet., 17:520-527, 2001).

Numbering of substitutions follows the chain as printed.

Results on ten molecules are retold here after patent US20100022006, “GAMMA SATELLITE INSULATOR SEQUENCES AND THEIR USE IN PREVENTING GENE SILENCING” (THE GOVT. OF THE USA AS REPRESENTED BY THE SECRETA, published 2010).

Chain of Luciferase (in vitro translated control) (P08659 whole entry, one chain of several): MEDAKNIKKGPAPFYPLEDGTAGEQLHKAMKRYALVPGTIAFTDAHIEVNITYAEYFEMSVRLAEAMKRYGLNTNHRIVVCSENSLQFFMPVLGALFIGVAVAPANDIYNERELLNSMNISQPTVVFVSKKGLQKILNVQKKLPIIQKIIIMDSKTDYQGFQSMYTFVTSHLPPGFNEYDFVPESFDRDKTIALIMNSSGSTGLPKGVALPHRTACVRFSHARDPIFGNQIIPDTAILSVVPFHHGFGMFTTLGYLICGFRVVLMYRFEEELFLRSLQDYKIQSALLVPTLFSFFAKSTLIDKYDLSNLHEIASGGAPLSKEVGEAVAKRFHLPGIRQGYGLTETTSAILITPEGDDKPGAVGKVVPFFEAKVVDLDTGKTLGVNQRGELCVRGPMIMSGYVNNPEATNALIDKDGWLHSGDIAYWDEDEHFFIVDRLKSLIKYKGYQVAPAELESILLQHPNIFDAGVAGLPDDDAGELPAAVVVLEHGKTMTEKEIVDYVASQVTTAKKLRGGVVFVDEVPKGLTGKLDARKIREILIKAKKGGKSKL

B1: gamma-satellite 8 fragment 11 (monomer 8) (dsDNA)
DNA 1: CGAAAATGGGGCCACTGGGTGGCCTGAACGAGCCAAAGGGACTCAGGGTGACACTGAGG
DNA 2: CCTCAGTGTCACCCTGAGTCCCTTTGGCTCGTTCAGGCCACCCAGTGGCCCCATTTTCG
For B1, the binding result in data set [1] is “no binding”; in data set [2], “binds”.

B2: SssI-methylated gamma-satellite 8 fragment (dsDNA)
DNA 1: B1 DNA 1
DNA 2: B1 DNA 2
modifications: 5mC at CpG (SssI)
Consider B2, for which, in data set [3], the binding result was “binds”.

B3: gamma-satellite 8 fragment 8 (monomer 6) (dsDNA)
DNA 1: AGACAACAGGGCGGCTGGATGGCATGGGCCGATCGTAGGAACCCAGGGAGACATTGAGG
DNA 2: CCTCAATGTCTCCCTGGGTTCCTACGATCGGCCCATGCCATCCAGCCGCCCTGTTGTCT
With B3, in data set [4], the binding result is “binds”.

B4: gamma-satellite 8 fragment 5 (monomer 4) (dsDNA)
DNA 1: CAAAAACAAGGCCGCAGGGTGGCGTGGGCGGGCCGCAGGGACTCAGGTGGAAATTGTGG
DNA 2: CCACAATTTCCACCTGAGTCCCTGCGGCCCGCCCACGCCACCCTGCGGCCTTGTTTTTG
Regarding B4, the binding result in data set [4] is listed as “binds”.

B5: gamma-satellite 8 fragment 6 (monomer 5) (dsDNA)
DNA 1: CAAAAACAGTGCCGCAGTGTGGCCTGGGCGGGCCACAGGGACTCAGGGAGACGTTGAGG
DNA 2: CCTCAACGTCTCCCTGAGTCCCTGTGGCCCGCCCAGGCCACACTGCGGCACTGTTTTTG
Turning to B5, the binding result in data set [4] is “binds”.

B6: gamma-satellite 8 monomer 8 WT-8 core (dsDNA)
DNA 1: CGAAAATGGGGCCACTGGGTGGCCTGAACGAGCCAAAGGGACTCAGGGTGACACT
DNA 2: AGTGTCACCCTGAGTCCCTTTGGCTCGTTCAGGCCACCCAGTGGCCCCATTTTCG
For the molecule B6, the binding result in data set [5] was “binds”.

B7: gamma-satellite 8 monomer 8 Mu2 (dsDNA)
DNA 1: B6 DNA 1 with G18A, C23T, C24T, C29T
DNA 2: B6 DNA 2 with G27A, G32A, G33A, C38T
For the molecule B7, in data set [6], the binding result is recorded as “no binding”.

B8: gamma-satellite 8 monomer 8 Mu3 (dsDNA)
DNA 1: B6 DNA 1 with C12T, C15T, G17A, C23T, C29T
DNA 2: B6 DNA 2 with G27A, G33A, C39T, G41A, G44A
Take B8: the binding result in data set [6] is reported as “no binding”.

B9: gamma-satellite 8 monomer 8 Mu1 (dsDNA)
DNA 1: B6 DNA 1 with G17A, G18A, G19A, C23T
DNA 2: B6 DNA 2 with G33A, C37T, C38T, C39T
For B9, the binding result in data set [6] is reported as “no binding”.

B10: gamma-satellite 8 fragment 10 (monomer 7) (dsDNA)
DNA 1: TGAAAACAGGGAGGCAGGGTGGCATGGCCAGGCCGCAGGGACTATGGTGGACATTGTGG
DNA 2: CCACAATGTCCACCATAGTCCCTGCGGCCTGGCCATGCCACCCTGCCTCCCTGTTTTCA
For B10, the binding result in data set [4] is “binds”.
